In PMC3274598 (Analytical Biochemistry, 2011) one finds IC50 and Kd data, which are given here for 2 molecules.

In assay [1] the target is N-terminal OB-fold domain of RPA70 (RPA70N) (human, UniProt P27694 1-120). Kind of assay: fluorescence polarisation.
The next assay deals with T1, ATRIP peptide (Homo sapiens, UniProt Q8WXE1).
T1 chain: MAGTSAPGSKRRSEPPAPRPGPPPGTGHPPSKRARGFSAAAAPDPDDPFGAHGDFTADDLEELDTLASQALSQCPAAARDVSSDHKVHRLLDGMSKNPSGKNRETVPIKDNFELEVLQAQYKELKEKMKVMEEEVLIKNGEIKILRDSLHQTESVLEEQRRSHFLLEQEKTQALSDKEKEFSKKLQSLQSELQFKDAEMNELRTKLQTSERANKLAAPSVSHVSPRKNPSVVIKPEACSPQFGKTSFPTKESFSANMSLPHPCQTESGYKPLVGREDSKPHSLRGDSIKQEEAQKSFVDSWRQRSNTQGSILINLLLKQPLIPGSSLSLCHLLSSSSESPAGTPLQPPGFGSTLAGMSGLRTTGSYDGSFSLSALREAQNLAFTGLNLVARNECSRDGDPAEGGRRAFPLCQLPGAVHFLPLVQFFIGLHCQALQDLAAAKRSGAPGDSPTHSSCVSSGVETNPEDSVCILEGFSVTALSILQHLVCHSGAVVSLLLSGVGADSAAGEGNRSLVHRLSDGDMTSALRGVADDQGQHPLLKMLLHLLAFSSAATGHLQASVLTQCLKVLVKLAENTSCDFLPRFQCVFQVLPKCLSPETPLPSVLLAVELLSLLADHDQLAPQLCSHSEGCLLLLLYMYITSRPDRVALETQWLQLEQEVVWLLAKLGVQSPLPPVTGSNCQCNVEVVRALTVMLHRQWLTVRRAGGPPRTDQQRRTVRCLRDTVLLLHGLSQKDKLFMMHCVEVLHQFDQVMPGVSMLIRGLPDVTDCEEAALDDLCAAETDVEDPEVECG
Kind of assay: NMR.

In the next assay the target is T2, RAD9 peptide (Homo sapiens, UniProt Q99638).
T2 chain: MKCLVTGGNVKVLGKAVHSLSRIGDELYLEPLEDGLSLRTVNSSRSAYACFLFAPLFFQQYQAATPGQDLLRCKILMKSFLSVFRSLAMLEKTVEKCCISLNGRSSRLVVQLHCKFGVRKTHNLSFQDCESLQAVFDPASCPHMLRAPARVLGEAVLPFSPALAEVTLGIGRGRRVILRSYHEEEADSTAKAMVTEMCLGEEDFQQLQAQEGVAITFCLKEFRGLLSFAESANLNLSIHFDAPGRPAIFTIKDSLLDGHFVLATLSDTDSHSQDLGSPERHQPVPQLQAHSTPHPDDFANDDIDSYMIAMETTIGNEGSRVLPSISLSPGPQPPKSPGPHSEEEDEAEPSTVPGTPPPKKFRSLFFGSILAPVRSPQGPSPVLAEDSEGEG
Kind of assay: anisotropy.

B1: RAD9 peptide (Ac-DFANDDIDSYMIAME-NH2) (peptide)
peptide: Ac-DFANDDIDSYMIAME-NH2
In assay [1], B1 came in with an IC50 of 102 ± 13.6 µM.

B2: RPA70N 70N (protein)
chain: MVGQLSEGAIAAIMQKGDTNIKPILQVINIRPITTGNSPPRYRLLMSDGLNTLSSFMLATQLNPLVEEEQLSSNCVCQIHRFIVNTLKDGRRVVILMELEVLKSAEAVGVKIGNPVPYNE
Take B2: the Kd was 48 µM with ATRIP peptide and 51 µM with RAD9 peptide.

By IC50 is commonly meant the concentration that inhibits the measured activity by half. A low value points to inhibition by little substance. In general, Kd refers to the concentration at which binding is half-saturated. Higher therefore signals a looser complex.
